Target: Acid-solubilized type I bovine collagen (bovine) (UniProt P02453)
Assay: SPR

Chain of UniProt P02453 (P02453 162-1217, chain 1 of 2): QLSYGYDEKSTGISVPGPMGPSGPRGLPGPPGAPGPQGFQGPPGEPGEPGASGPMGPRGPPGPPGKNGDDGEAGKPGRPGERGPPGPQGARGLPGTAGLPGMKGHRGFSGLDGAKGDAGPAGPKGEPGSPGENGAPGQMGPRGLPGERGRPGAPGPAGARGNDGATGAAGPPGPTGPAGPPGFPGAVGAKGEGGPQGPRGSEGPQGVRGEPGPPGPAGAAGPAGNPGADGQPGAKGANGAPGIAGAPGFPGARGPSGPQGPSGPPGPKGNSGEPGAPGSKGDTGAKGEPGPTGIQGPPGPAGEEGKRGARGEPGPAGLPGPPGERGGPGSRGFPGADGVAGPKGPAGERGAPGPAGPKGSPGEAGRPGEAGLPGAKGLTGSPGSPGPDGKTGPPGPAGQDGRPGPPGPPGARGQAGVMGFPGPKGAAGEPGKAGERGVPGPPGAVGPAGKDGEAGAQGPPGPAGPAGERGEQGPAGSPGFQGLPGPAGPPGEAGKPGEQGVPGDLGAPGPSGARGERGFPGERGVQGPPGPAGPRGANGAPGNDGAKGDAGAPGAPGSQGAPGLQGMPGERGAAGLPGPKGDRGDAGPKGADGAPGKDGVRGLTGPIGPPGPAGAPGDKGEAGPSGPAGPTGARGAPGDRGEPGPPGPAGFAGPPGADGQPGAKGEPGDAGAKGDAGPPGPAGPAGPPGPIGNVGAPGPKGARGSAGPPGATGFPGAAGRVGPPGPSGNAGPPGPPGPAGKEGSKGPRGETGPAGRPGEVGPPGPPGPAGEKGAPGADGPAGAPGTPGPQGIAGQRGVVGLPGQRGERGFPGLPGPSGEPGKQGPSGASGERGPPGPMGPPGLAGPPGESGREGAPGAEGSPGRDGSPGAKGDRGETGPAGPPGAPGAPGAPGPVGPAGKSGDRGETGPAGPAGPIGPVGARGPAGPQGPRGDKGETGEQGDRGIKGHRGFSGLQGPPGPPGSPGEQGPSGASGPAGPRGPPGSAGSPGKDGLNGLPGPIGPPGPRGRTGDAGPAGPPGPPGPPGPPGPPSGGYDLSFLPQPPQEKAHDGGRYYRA
Chain of UniProt P02453 (P02465 80-1117, chain 2 of 2, further chain): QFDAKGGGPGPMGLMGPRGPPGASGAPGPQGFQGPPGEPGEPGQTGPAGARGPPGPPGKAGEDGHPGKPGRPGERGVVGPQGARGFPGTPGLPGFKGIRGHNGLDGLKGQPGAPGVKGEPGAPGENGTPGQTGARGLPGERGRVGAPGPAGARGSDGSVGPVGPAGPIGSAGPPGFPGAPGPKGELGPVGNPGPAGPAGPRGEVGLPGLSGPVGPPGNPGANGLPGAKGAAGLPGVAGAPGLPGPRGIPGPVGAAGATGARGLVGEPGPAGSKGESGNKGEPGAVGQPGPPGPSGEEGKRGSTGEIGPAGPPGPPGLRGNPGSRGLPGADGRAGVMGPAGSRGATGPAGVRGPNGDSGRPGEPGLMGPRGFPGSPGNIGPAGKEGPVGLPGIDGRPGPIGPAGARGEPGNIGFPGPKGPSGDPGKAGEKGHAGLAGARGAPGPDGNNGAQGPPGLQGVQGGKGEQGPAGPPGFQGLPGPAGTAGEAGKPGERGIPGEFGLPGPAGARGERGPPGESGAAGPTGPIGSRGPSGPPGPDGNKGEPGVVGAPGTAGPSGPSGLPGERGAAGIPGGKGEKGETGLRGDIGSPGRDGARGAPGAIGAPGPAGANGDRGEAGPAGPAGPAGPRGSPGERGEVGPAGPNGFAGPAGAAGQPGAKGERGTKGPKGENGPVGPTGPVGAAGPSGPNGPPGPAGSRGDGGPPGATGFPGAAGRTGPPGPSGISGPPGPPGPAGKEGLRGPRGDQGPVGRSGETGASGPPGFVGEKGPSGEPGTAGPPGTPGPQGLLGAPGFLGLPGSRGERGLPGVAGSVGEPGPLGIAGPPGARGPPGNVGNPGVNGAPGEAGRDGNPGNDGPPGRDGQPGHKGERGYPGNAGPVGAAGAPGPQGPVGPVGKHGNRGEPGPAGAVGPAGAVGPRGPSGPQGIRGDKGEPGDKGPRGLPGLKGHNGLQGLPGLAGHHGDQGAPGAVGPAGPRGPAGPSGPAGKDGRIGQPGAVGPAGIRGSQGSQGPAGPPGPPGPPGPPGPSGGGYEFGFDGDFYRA

Row | Substance | koff [s⁻¹] | kon [M⁻¹ s⁻¹]
1 | Human plasma von Willebrand factor (from UniProt P04275 764-2813) (natural protein) | 0.00073 | 
2 | Recombinant wild type von Willebrand factor (from UniProt P04275 764-2813) (natural protein) | 0.000932 | 2.36e+06

— PMC9028814
